Test [1] concerns the target T1, mouse DLL3 (mouse, UniProt O88516 25-477, limits assumed).
T1 construct: also called mDLL3; murine DLL3
T1 sequence (looked up): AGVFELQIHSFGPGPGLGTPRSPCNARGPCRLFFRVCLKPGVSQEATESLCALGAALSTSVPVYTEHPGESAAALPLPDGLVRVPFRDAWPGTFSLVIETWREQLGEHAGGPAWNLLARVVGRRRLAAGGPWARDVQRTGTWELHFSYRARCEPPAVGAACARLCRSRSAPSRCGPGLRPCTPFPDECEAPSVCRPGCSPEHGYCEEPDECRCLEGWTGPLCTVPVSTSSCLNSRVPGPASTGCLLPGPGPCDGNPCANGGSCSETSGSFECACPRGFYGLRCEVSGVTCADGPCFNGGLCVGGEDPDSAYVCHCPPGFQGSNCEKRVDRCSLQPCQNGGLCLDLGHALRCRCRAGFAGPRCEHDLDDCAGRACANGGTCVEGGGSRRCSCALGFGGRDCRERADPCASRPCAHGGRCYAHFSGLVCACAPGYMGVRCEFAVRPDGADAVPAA
Nature of the test: ELISA.

The target of test [2] is T2, DLL3 on cells (SHP-77, NCI-H82, HEK-DLL3, membrane proteome array cells) (human, UniProt Q9NYJ7 27-618).
T2 construct: whole, on cells; also called hDLL3
T2 sequence (looked up): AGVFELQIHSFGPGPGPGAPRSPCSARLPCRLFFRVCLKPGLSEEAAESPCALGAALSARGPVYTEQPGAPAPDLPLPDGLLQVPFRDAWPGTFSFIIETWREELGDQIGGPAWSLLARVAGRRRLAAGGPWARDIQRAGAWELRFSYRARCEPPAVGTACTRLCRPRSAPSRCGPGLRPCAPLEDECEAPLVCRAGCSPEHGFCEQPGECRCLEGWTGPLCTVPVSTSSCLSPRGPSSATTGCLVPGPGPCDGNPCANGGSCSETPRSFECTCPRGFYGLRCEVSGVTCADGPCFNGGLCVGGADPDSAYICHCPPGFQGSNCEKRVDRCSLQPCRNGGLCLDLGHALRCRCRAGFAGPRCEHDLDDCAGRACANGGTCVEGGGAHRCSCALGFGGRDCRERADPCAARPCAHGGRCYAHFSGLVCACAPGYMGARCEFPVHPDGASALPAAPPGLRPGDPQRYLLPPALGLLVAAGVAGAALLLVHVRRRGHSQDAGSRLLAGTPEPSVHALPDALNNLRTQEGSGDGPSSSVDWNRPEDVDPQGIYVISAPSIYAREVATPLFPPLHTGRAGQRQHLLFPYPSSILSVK
Kind of test: flow cytometry on SHP-77 cells, Geomeans RL1-H.

In test [3] the target is T3, human DLL3 (human, UniProt Q9NYJ7 27-492, limits assumed).
T3 construct: also called hDLL3; Delta-like protein 3
T3 sequence (looked up): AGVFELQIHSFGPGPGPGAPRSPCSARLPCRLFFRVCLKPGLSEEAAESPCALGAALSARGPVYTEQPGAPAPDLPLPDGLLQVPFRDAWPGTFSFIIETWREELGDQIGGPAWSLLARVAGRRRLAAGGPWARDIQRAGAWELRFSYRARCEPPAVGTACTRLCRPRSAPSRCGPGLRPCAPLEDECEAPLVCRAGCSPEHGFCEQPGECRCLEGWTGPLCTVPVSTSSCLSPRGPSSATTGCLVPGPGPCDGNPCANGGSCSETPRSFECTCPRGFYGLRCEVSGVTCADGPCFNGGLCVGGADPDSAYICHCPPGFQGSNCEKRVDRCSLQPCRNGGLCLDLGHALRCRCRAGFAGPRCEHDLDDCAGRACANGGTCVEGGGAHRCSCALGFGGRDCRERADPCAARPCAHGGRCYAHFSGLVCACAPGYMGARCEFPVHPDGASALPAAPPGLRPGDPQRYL
Nature of the test: ELISA.

Test [4] addresses T2, DLL3 on cells (SHP-77, NCI-H82, …). Kind of test: flow cytometry on SHP-77 cells, Geomeans RL1-H. This is another data set of the same source.

Read-outs that look alike come from different tables or passages of the source.

The text below walks through data of patent publication US20250051476A1 (ABDERA THERAPEUTICS, published 2025).

B1: 126_zu4 (Fc fusion)
chain: QVQLVESGGGLVQPGGSLRLSCAASGITFSMYSMSWYRQAPGQQRELVAATTTFGSTNYADSVKGRFTISRDNSKNTLYLQMNSLRAEDTAVYYCAARFTSEEYWGQGTLVTVSSEPKSSDKTHTCPPCPAPEAEGAPSVFLFPPKPKDTLMISRTPEVTCVVVDVSHEDPEVKFNWYVDGVEVHNAKTKPREEQYNSTYRVVSVLTVLHQDWLNGKEYKCKVSNKALPSSIEKTISKAKGQPREPQVYTLPPSREEMTKNQVSLTCLVKGFYPSDIAVEWESNGQPENNYKTTPPVLDSDGSFFLYSKLTVDKSRWQQGNVFSCSVMHEALHNQYTQKSLSLSPG
notes: Humanized VHH-Fc
As to B1, the binding result in test [1] is recorded as “no binding”. Besides, in test [2], the “EC50 (read off the curve)” value is roughly 0.1 nM.

B2: 126_zu3 (Fc fusion)
chain: QVQLVESGGGLVQPGGSLRLSCAASGITFSMYSMSWYRQAPGQGLELVAATTTFGSTNYADSVKGRFTISRDNSKNTLYLQMNSLRAEDTAVYYCAARFTSEEYWGQGTLVTVSSEPKSSDKTHTCPPCPAPEAEGAPSVFLFPPKPKDTLMISRTPEVTCVVVDVSHEDPEVKFNWYVDGVEVHNAKTKPREEQYNSTYRVVSVLTVLHQDWLNGKEYKCKVSNKALPSSIEKTISKAKGQPREPQVYTLPPSREEMTKNQVSLTCLVKGFYPSDIAVEWESNGQPENNYKTTPPVLDSDGSFFLYSKLTVDKSRWQQGNVFSCSVMHEALHNQYTQKSLSLSPG
notes: Humanized VHH-Fc
As for B2, the binding result in test [1] was “no binding”. Moreover, the “EC50 (read off the curve)” value in test [2] was roughly 0.1 nM.

B3: 126_zu1 (Fc fusion)
chain: QVQLVESGGGLVQPGGSLRLSCAASGITFSMYSMSWFRQAPGQGLEAVAATTTFGSTNYADSVKGRFTISRDNSKNTLYLQMNSLRAEDTAVYYCAARFTSEEYWGQGTLVTVSSEPKSSDKTHTCPPCPAPEAEGAPSVFLFPPKPKDTLMISRTPEVTCVVVDVSHEDPEVKFNWYVDGVEVHNAKTKPREEQYNSTYRVVSVLTVLHQDWLNGKEYKCKVSNKALPSSIEKTISKAKGQPREPQVYTLPPSREEMTKNQVSLTCLVKGFYPSDIAVEWESNGQPENNYKTTPPVLDSDGSFFLYSKLTVDKSRWQQGNVFSCSVMHEALHNQYTQKSLSLSPG
notes: Humanized VHH-Fc
With B3, the binding result is on record as “binds” in test [3], “no binding” in test [1] and “binds” in test [2].

B4: 126_zu5 (Fc fusion)
chain: QVQLVESGGGLVQPGGSLRLSCAASGITFSMYSMSWYRQPPGKQRELVAATTTFGSTNYADSVKGRFTISRDNSKNTLYLQMNSLRAEDTAVYYCAARFTSEEYWGQGTLVTVSSEPKSSDKTHTCPPCPAPEAEGAPSVFLFPPKPKDTLMISRTPEVTCVVVDVSHEDPEVKFNWYVDGVEVHNAKTKPREEQYNSTYRVVSVLTVLHQDWLNGKEYKCKVSNKALPSSIEKTISKAKGQPREPQVYTLPPSREEMTKNQVSLTCLVKGFYPSDIAVEWESNGQPENNYKTTPPVLDSDGSFFLYSKLTVDKSRWQQGNVFSCSVMHEALHNQYTQKSLSLSPG
notes: Humanized VHH-Fc
Take B4: the binding result in test [1] is listed as “no binding”. In addition, the concentration giving a half-maximal response (EC50 (read off the curve)) in test [2] was roughly 0.1 nM.

B5: 186 (Fc fusion)
chain: QVQVVESGGGLVQPGGSLTLSCAASGFDFSTYTVNWYRQAPGKEREKVARISSTGTTTNYANSAKGRFTLSRDNAKNRVYLQMNNLKPEDTAVYFCNFERFDSNYWGQGTQVTVSSEPKSSDKTHTCPPCPAPEAEGAPSVFLFPPKPKDTLMISRTPEVTCVVVDVSHEDPEVKFNWYVDGVEVHNAKTKPREEQYNSTYRVVSVLTVLHQDWLNGKEYKCKVSNKALPSSIEKTISKAKGQPREPQVYTLPPSREEMTKNQVSLTCLVKGFYPSDIAVEWESNGQPENNYKTTPPVLDSDGSFFLYSKLTVDKSRWQQGNVFSCSVMHEALHNQYTQKSLSLSPG
notes: Parental camelid VHH-Fc
B5: the “EC50 (read off the curve)” value in test [4] is roughly 0.1 nM.

B6: 100_zu5 (Fc fusion)
chain: QVQLVESGGGLVQPGGSLRLSCAASGIVFNSDVMGWYRQVPGKPRELVATITGGGSTNYATSVKGRFTISRDNSKNTLYLQMNSLRAEDTAVYYCAARRGDSMLAFWGQGTLVTVSSEPKSSDKTHTCPPCPAPEAEGAPSVFLFPPKPKDTLMISRTPEVTCVVVDVSHEDPEVKFNWYVDGVEVHNAKTKPREEQYNSTYRVVSVLTVLHQDWLNGKEYKCKVSNKALPSSIEKTISKAKGQPREPQVYTLPPSREEMTKNQVSLTCLVKGFYPSDIAVEWESNGQPENNYKTTPPVLDSDGSFFLYSKLTVDKSRWQQGNVFSCSVMHEALHNQYTQKSLSLSPG
notes: Humanized VHH-Fc
Regarding B6, the binding result in test [3] and in test [1] was “no binding” throughout.

B7: 186_zu1 (Fc fusion)
chain: QVQLVESGGGLVQPGGSLRLSCAASGFDFSTYTVNWFRQAPGQGLEAVARISSTGTTTNYANSAKGRFTISRDNSKNTLYLQMNSLRAEDTAVYYCAAERFDSNYWGQGTLVTVSSEPKSSDKTHTCPPCPAPEAEGAPSVFLFPPKPKDTLMISRTPEVTCVVVDVSHEDPEVKFNWYVDGVEVHNAKTKPREEQYNSTYRVVSVLTVLHQDWLNGKEYKCKVSNKALPSSIEKTISKAKGQPREPQVYTLPPSREEMTKNQVSLTCLVKGFYPSDIAVEWESNGQPENNYKTTPPVLDSDGSFFLYSKLTVDKSRWQQGNVFSCSVMHEALHNQYTQKSLSLSPG
notes: Humanized VHH-Fc
Regarding B7, in test [1], the binding result is recorded as “no binding”. In test [4], the concentration giving a half-maximal response (EC50 (read off the curve)) is roughly 0.3 nM.

B8: 107_zu4 (Fc fusion)
chain: QVQLVESGGGLVQPGGSLRLSCAASDRTFSSYAVGWFRQAPGQEREFVAAISWNGGRTLYTDSVTGRFTISRDNSKNTLYLQMNSLRAEDTAVYYCAARPAAPTRRLEYDYWGQGTLVTVSSEPKSSDKTHTCPPCPAPEAEGAPSVFLFPPKPKDTLMISRTPEVTCVVVDVSHEDPEVKFNWYVDGVEVHNAKTKPREEQYNSTYRVVSVLTVLHQDWLNGKEYKCKVSNKALPSSIEKTISKAKGQPREPQVYTLPPSREEMTKNQVSLTCLVKGFYPSDIAVEWESNGQPENNYKTTPPVLDSDGSFFLYSKLTVDKSRWQQGNVFSCSVMHEALHNQYTQKSLSLSPG
notes: Humanized VHH-Fc
Turning to B8, the binding result in test [3] and in test [2] was “binds” throughout.

B9: 107_zu3 (Fc fusion)
chain: QVQLVESGGGLVQPGGSLRLSCAASDRTFSSYAVGWFRQAPGQGREFVAAISWNGGRTLYTDSVTGRFTISRDNSKNTLYLQMNSLRAEDTAVYYCAARPAAPTRRLEYDYWGQGTLVTVSSEPKSSDKTHTCPPCPAPEAEGAPSVFLFPPKPKDTLMISRTPEVTCVVVDVSHEDPEVKFNWYVDGVEVHNAKTKPREEQYNSTYRVVSVLTVLHQDWLNGKEYKCKVSNKALPSSIEKTISKAKGQPREPQVYTLPPSREEMTKNQVSLTCLVKGFYPSDIAVEWESNGQPENNYKTTPPVLDSDGSFFLYSKLTVDKSRWQQGNVFSCSVMHEALHNQYTQKSLSLSPG
notes: Humanized VHH-Fc
Regarding B9, the binding result in test [3] and in test [2] was “binds” each time.

B10: 107_zu5 (Fc fusion)
chain: QVQLVESGGGLVQPGGSLRLSCAASDRTFSSYAVGWFRQAPGKEREFVAAISWNGGRTLYTDSVTGRFTISRDNSKNTLYLQMNSLRAEDTAVYYCAARPAAPTRRLEYDYWGQGTLVTVSSEPKSSDKTHTCPPCPAPEAEGAPSVFLFPPKPKDTLMISRTPEVTCVVVDVSHEDPEVKFNWYVDGVEVHNAKTKPREEQYNSTYRVVSVLTVLHQDWLNGKEYKCKVSNKALPSSIEKTISKAKGQPREPQVYTLPPSREEMTKNQVSLTCLVKGFYPSDIAVEWESNGQPENNYKTTPPVLDSDGSFFLYSKLTVDKSRWQQGNVFSCSVMHEALHNQYTQKSLSLSPG
notes: Humanized VHH-Fc
With B10, the binding result in test [3] and in test [2] was “binds” throughout.
